B1: Chloroplast SRP54 from Arabidopsis thaliana (natural protein)
chain: EMFGQLTGGLEAAWSKLKGEEVLTKDNIAEPMRDIRRALLEADVSLPVVRRFVQSVSDQAVGMGVIRGVKPDQQLVKIVHDELVKLMGGEVSELQFAKSGPTVILLAGLQGVGKTTVCAKLACYLKKQGKSCMLIAGDVYRPAAIDQLVILGEQVGVPVYTAGTDVKPADIAKQGLKEAKKNNVDVVIMDTAGRLQIDKGMMDELKDVKKFLNPTEVLLVVDAMTGQEAAALVTTFNVEIGITGAILTKLDGDSRGGAALSVKEVSGKPIKLVGRGERMEDLEPFYPDRMAGRILGMGDVLSFVEKATEVMRQEDAEDLQKKIMSAKFDFNDFLKQTRAVAKMGSMTRVLGMIPGMGKVSPAQIREAEKNLLVMEAMIEVMTPEERERPELLAESPERRKRIAKDSGKTEQQVSALVAQIFQMRVKMKNLMGVMEGGSIPALSGLEDALKAEQKAPPGTARRKRKADSRKKFVESASSKPGPRGFGSGN
B2: SRP72 (natural protein)
chain: MASGGSGGVSVPALWSEVNRYGQNGDFTRALKTVNKILQINKDDVTALHCKVVCLIQNGSFKEALNVINTHTKVLANNSLSFEKAYCEYRLNRIENALKTIESANQQTDKLKELYGQVLYRLERYDECLAVYRDLVRNSQDDYDEERKTNLSAVVAAQSNWEKVVPENLGLQEGTHELCYNTACALIGQGQLNQAMKILQKAEDLCRRSLSEDTDGTEEDPQAELAIIHGQMAYILQLQGRTEEALQLYNQIIKLKPTDVGLLAVIANNIITINKDQNVFDSKKKVKLTNAEGVEFKLSKKQLQAIEFNKALLAMYTNQAEQCRKISASLQSQSPEHLLPVLIQAAQLCREKQHTKAIELLQEFSDQHPENAAEIKLTMAQLKISQGNISKACLILRSIEELKHKPGMVSALVTMYSHEEDIDSAIEVFTQAIQWYQNHQPKSPAHLSLIREAANFKLKYGRKKEAISDLQQLWKQNPKDIHTLAQLISAYSLVDPEKAKALSKHLPSSDSMSLKVDVEALENSAGATYIRKKGGKVTGDSQPKEQGQGDLKKKKKKKKGKLPKNYDPKVTPDPERWLPMRERSYYRGRKKGKKKDQIGKGTQGATAGASSELDASKTVSSPPTSPRPGSAATVSASTSNIIPPRHQKPAGAPATKKKQQQKKKKGGKGGW
B3: SRP68/72 complete heterodimer (complex)
chain 1: MAAEKQVPGGGGGGGSGGGGGSGGGGSGGGRGAGGEENKENERPSAGSKANKEFGDSLSLEILQIIKESQQQHGLRHGDFQRYRGYCSRRQRRLRKTLNFKMGNRHKFTGKKVTEELLTDNRYLLLVLMDAERAWSYAMQLKQEANTEPRKRFHLLSRLRKAVKHAEELERLCESNRVDAKTKLEAQAYTAYLSGMLRFEHQEWKAAIEAFNKCKTIYEKLASAFTEEQAVLYNQRVEEISPNIRYCAYNIGDQSAINELMQMRLRSGGTEGLLAEKLEALITQTRAKQAATMSEVEWRGRTVPVKIDKVRIFLLGLADNEAAIVQAESEETKERLFESMLSECRDAIQVVREELKPDQKQRDYILEGEPGKVSNLQYLHSYLTYIKLSTAIKRNENMAKGLQRALLQQQPEDDSKRSPRPQDLIRLYDIILQNLVELLQLPGLEEDKAFQKEIGLKTLVFKAYRCFFIAQSYVLVKKWSEALVLYDRVLKYANEVNSDAGAFKNSLKDLPDVQELITQVRSEKCSLQAAAILDANDAHQTETSSSQVKDNKPLVERFETFCLDPSLVTKQANLVHFPPGFQPIPCKPLFFDLALNHVAFPPLEDKLEQKTKSGLTGYIKGIFGFRS
chain 2: MASGGSGGVSVPALWSEVNRYGQNGDFTRALKTVNKILQINKDDVTALHCKVVCLIQNGSFKEALNVINTHTKVLANNSLSFEKAYCEYRLNRIENALKTIESANQQTDKLKELYGQVLYRLERYDECLAVYRDLVRNSQDDYDEERKTNLSAVVAAQSNWEKVVPENLGLQEGTHELCYNTACALIGQGQLNQAMKILQKAEDLCRRSLSEDTDGTEEDPQAELAIIHGQMAYILQLQGRTEEALQLYNQIIKLKPTDVGLLAVIANNIITINKDQNVFDSKKKVKLTNAEGVEFKLSKKQLQAIEFNKALLAMYTNQAEQCRKISASLQSQSPEHLLPVLIQAAQLCREKQHTKAIELLQEFSDQHPENAAEIKLTMAQLKISQGNISKACLILRSIEELKHKPGMVSALVTMYSHEEDIDSAIEVFTQAIQWYQNHQPKSPAHLSLIREAANFKLKYGRKKEAISDLQQLWKQNPKDIHTLAQLISAYSLVDPEKAKALSKHLPSSDSMSLKVDVEALENSAGATYIRKKGGKVTGDSQPKEQGQGDLKKKKKKKKGKLPKNYDPKVTPDPERWLPMRERSYYRGRKKGKKKDQIGKGTQGATAGASSELDASKTVSSPPTSPRPGSAATVSASTSNIIPPRHQKPAGAPATKKKQQQKKKKGGKGGW
B4: Ffh from E. coli (natural protein)
chain: MFDNLTDRLSRTLRNISGRGRLTEDNVKDTLREVRMALLEADVALPVVREFINRVKEKAVGHEVNKSLTPGQEFVKIVRNELVAAMGEENQTLNLAAQPPAVVLMAGLQGAGKTTSVGKLGKFLREKHKKKVLVVSADVYRPAAIKQLETLAEQVGVDFFPSDVGQKPVDIVNAALKEAKLKFYDVLLVDTAGRLHVDEAMMDEIKQVHASINPVETLFVVDAMTGQDAANTAKAFNEALPLTGVVLTKVDGDARGGAALSIRHITGKPIKFLGVGEKTEALEPFHPDRIASRILGMGDVLSLIEDIESKVDRAQAEKLASKLKKGDGFDLNDFLEQLRQMKNMGGMASLMGKLPGMGQIPDNVKSQMDDKVLVRMEAIINSMTMKERAKPEIIKGSRKRRIAAGCGMQVQDVNRLLKQFDDMQRMMKKMKKGGMAKMMRSMKGMMPPGFPGR

Each molecule was assayed against rabbit reticulocyte ribosome-nascent chain complexes exposing an SRP-targeting signal (rabbit | not stated) (assay: MST).

**Q.** For “entire recombinant SRPS/SR system as measured with RNCs (from UniProt P09132;Q9UHB9;O76094;P61011;P08240;Q9Y5M8) (complex)”, which Kd is on record?
**A.** Its Kd is < 0.9 nM.

These molecules were tested against human 80S ribosome (non-translating, Puromycin-treated monosomes) (human (endogenous in HeLa)) (assay: MST).

**Q.** For SRP54MΔC (domain or fragment), which Kd is on record?
**A.** The Kd was 100 nM.

**Q.** For SRP54NG (domain or fragment), which Kd is on record?
**A.** Its Kd is 1650 nM.

**Q.** SRP54ΔC (domain or fragment) was tested. Which KD1 (two-site fit, PALMIST) did it give?
**A.** Its KD1 (two-site fit, PALMIST) is < 100 nM.

**Q.** What about the KD of the first (high-affinity) binding event of the same molecule?
**A.** Its KD of the first (high-affinity) binding event is 100 nM.

**Q.** What about the Kd of the same molecule?
**A.** The Kd was 200 nM.

**Q.** With “SRP68/72ΔC (SRP68/72 heterodimer with the C-terminus of SRP72 truncated) (from UniProt Q9UHB9;O76094) (complex)” as the molecule, how does the Kd read?
**A.** Its Kd is 420 nM.

**Q.** Which Kd does the source give for “SRP72-RBD+C (C-terminal region of SRP72 including the RBD) (domain or fragment)” here?
**A.** The Kd was 920 nM.

**Q.** Which Kd does the source give for “SRPS/SR complex with SRP54 (without signal sequence) (from UniProt P09132;Q9UHB9;O76094;P61011;P08240;Q9Y5M8)” here?
**A.** Its Kd is < 1.4 nM.

**Q.** With “SRPS/SR complex with SRP54ss (signal sequence fused to SRP54) (from UniProt P09132;Q9UHB9;O76094;P61011;P08240;Q9Y5M8)” as the molecule, how does the Kd read?
**A.** Its Kd is < 2 nM.

**Q.** How did the Kd turn out when “SRPS/SR complex with SRP54ΔC (without signal sequence) (from UniProt P09132;Q9UHB9;O76094;P61011;P08240;Q9Y5M8)” was run?
**A.** The Kd was < 1.2 nM.

**Q.** For “SRαΔRBR/SRβ (from UniProt P08240;Q9Y5M8) (complex)”, which Kd is on record?
**A.** The Kd was > 7500 nM.

**Q.** For “SRαβ heterodimer (SRP receptor; full-length SRα with SRβ lacking its N-terminal TMD) (from UniProt P08240;Q9Y5M8) (complex)”, which Kd is on record?
**A.** Its Kd is 410 nM.

**Q.** Which Kd does the source give for “complete SRPS (SRP S domain: SRPS RNA, SRP19, SRP68/72 and full-length SRP54) (from UniProt P09132;Q9UHB9;O76094;P61011) (complex)” here?
**A.** Its Kd is < 4.7 nM.

**Q.** With “complete SRPS with SRP54ΔC (SRPS RNA, SRP19, SRP68/72 and SRP54ΔC) (from UniProt P09132;Q9UHB9;O76094;P61011) (complex)” as the molecule, how does the Kd read?
**A.** The Kd was < 4.7 nM.

**Q.** With “entire human SRP (native 7SL RNA and all six SRP proteins) (from UniProt P49458;P37108;P09132;Q9UHB9;O76094;P61011) (complex)” as the molecule, how does the concentration of saturation read?
**A.** The concentration of saturation was < 2.2 nM.

**Q.** With “quaternary SRPS complex with the SRP68/72 heterodimer without the SRP72 C-terminus (RNA/SRP19/SRP68/72ΔC) (from UniProt P09132;Q9UHB9;O76094)” as the molecule, how does the Kd read?
**A.** Its Kd is 370 nM.

**Q.** “quaternary SRPS complex with the truncated SRP68/72–RBD constructs (RNA/SRP19/SRP68-RBD/SRP72-RBD in (from UniProt P09132 1-144)” was tested. Which Kd did it give?
**A.** Its Kd is 1650 nM.

**Q.** Which Kd does the source give for “ternary SRPS complex (SRP RNA/SRP19/54) with full-length SRP54 (from UniProt P09132;P61011)” here?
**A.** The Kd was < 4.7 nM.

**Q.** What about the stoichiometry N of the same molecule?
**A.** Its stoichiometry N is 1.

Molecular target: human 80S ribosome (non-translating, Puromycin-treated monosomes) (human (endogenous in HeLa))
Assay: MST
Remark: another data set of the same source

**Q.** With B1 as the molecule, how does the Kd read?
**A.** Its Kd is > 1200 nM.

**Q.** Which EC50 does the source give for B2 here?
**A.** The EC50 was 520 nM.

**Q.** What about the Kd of the same molecule?
**A.** Its Kd is 820 nM.

**Q.** B3 was tested. Which EC50 did it give?
**A.** Its EC50 is 160 nM.

**Q.** B4 was tested. Which Kd did it give?
**A.** The Kd was 2300 nM.
